Test results from IntAct's records for PubMed 23435383.

B1: Endonuclease III homolog 2 (Saccharomyces cerevisiae), Q08214 (parent)
chain: MREESRSRKRKHIPVDIEEVEVRSKYFKKNERTVELVKENKINKDLQNYGGVNIDWIKALKPIEYFEWIESRTCDDPRTWGRPITKEEMINDSGAKVPESFLPIYNRVRLMRSKVKTPVDAMGCSMIPVLVSNKCGIPSEKVDPKNFRLQFLIGTMLSAQTRDERMAQAALNITEYCLNTLKIAEGITLDGLLKIDEPVLANLIRCVSFYTRKANFIKRTAQLLVDNFDSDIPYDIEGILSLPGVGPKMGYLTLQKGWGLIAGICVDVHVHRLCKMWNWVDPIKCKTAEHTRKELQVWLPHSLWYEINTVLVGFGQLICMARGKRCDLCLANDVCNARNEKLIESSKFHQLEDKEDIEKVYSHWLDTVTNGITTERHKKK
partner: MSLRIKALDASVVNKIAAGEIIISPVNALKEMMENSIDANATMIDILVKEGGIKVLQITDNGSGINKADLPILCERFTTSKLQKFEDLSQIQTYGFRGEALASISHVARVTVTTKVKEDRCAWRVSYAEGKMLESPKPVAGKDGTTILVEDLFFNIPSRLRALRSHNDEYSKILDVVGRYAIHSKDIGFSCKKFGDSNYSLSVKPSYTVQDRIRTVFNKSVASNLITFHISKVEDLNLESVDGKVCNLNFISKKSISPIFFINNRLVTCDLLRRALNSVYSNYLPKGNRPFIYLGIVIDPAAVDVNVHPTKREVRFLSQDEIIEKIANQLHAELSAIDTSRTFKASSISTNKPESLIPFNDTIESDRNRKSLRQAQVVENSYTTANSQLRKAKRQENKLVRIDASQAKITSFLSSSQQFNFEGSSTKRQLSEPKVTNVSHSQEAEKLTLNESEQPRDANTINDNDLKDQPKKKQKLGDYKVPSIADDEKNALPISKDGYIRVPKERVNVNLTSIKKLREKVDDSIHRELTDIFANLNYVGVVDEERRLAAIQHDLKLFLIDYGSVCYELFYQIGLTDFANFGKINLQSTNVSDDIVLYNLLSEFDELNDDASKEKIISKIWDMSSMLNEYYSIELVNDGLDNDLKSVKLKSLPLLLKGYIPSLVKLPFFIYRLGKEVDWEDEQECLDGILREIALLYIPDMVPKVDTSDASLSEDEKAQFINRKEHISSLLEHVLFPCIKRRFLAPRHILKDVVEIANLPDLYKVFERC
B2: DNA mismatch repair protein MLH1 (Saccharomyces cerevisiae), P38920 (parent)
chain: B1 partner
partner: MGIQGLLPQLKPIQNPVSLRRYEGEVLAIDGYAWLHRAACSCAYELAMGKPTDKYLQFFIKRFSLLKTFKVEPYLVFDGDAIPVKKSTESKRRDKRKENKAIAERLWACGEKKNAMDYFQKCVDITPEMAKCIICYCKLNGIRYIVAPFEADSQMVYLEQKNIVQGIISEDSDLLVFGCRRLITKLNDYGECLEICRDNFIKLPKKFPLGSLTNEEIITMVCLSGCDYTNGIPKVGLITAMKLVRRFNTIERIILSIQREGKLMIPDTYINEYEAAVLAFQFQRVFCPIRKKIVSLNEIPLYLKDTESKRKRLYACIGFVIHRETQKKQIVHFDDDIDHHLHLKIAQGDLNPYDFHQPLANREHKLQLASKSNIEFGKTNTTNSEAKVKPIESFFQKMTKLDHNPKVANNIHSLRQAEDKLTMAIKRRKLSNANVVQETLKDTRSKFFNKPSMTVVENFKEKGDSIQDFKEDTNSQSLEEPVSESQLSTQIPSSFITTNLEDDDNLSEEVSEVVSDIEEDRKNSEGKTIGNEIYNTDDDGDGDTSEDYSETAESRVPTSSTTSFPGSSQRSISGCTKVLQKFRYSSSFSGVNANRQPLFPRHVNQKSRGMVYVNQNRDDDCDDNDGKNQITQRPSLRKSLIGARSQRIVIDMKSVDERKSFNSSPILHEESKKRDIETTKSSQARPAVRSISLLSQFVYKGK
B3: DNA mismatch repair protein MLH1 (Saccharomyces cerevisiae), P38920 (parent)
chain: B1 partner
partner: B1 chain

Variants of: B1
Settings: with mlh1_yeast MLH1, P38920
Y26F was tested, and the “effect of a mutation on the interaction” value was “decreasing interaction strength”.
With F27Y the “effect of a mutation on the interaction” value was “disrupting interaction strength”.
F27A was tested, and the “effect of a mutation on the interaction” value was “disrupting interaction strength”.

Variants of: B2
Settings: with exo1_yeast EXO1, P39875
For L511A, the “effect of a mutation on the interaction” value was “disrupting interaction strength”.

Variants of: B3
Settings: with nth2_yeast NTG2, Q08214
L511A was tested, and the “effect of a mutation on the interaction” value was “disrupting interaction strength”.
